Source: US7560248 (WISCONSIN ALUMNI RESEARCH FOUNDATION, dated 2009)
Changes are numbered by the printed parent chain. In names and notes the source's numbering stands.

T1: C329A human ribonuclease inhibitor (human, UniProt P13489 2-461, limits assumed)
T1 construct: also called C329A hRI
T1 sequence: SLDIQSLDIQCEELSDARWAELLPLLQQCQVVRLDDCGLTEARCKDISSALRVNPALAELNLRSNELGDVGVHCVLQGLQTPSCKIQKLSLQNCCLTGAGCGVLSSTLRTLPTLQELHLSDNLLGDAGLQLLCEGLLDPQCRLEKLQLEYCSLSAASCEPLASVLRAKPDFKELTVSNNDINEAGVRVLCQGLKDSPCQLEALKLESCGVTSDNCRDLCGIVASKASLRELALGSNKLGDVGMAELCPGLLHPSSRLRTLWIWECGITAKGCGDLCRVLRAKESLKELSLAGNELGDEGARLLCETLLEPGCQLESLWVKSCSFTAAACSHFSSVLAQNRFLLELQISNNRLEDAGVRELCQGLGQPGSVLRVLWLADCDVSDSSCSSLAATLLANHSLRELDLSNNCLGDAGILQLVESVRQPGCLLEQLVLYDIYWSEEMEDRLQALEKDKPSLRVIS

T2: C330A human ribonuclease inhibitor (human, UniProt P13489 2-461, limits assumed)
T2 construct: also called C330A hRI
T2 sequence: T1 sequence with A328C, C329A

T3: wild-type human ribonuclease inhibitor (human, UniProt P13489 2-461, limits assumed)
T3 construct: Made in E. coli from plasmid pET-RI; also called hRI; wild-type hRI
T3 sequence: T1 sequence with A328C

T4: C95A/C96A human ribonuclease inhibitor (human, UniProt P13489 2-461, limits assumed)
T4 construct: also called C95A/C96A hRI
T4 sequence: T1 sequence with C94A, C95A, A328C

T5: C329A/C330A human ribonuclease inhibitor (human, UniProt P13489 2-461, limits assumed)
T5 construct: also called C329A/C330A hRI
T5 sequence: T1 sequence with C329A

B1: C95A/C96A/C329A/C330A human ribonuclease inhibitor (other)
chain: T1 sequence with C94A, C95A, C329A
notes: Variant with all four substitutions; also called C95A/C96A/C329A/C330A hRI
B2: ribonuclease A (enzyme, UniProt P61823 27-150, looked up)
chain: KETAAAKFERQHMDSSTSAASSSNYCNQMMKSRNLTKDRCKPVNTFVHESLADVQAVCSQKNVACKNGQTNCYQSYSTMSITDCRETGSSKYPNCAYKTTQANKHIIVACEGNPYVPVHFDASV
notes: also called RNASE A; RNase A

Key:
[1] = biological target: B2; assay: affinity chromatography on RNase A-Sepharose 4B resin
[2] = biological target: T1, C329A human ribonuclease inhibitor; assay: inhibition of RNase A activity, poly(C) cleavage assay
Experimental: (§1) A solution (101) of 20 mM HEPES-HCl buffer, pH 7.6, containing KCl (50 mM) and RNASE A (80 nM) was added to each of the hRI solutions. The resulting mixtures were incubated at 37° C. for 5 min. The ribonucleolytic activity in each mixture was then assessed by using a spectrophotometric assay for poly(C) cleavage, as described (delCardayre et al., 1995), with [poly(C)]=37 μM. This experiment was performed at least twice with wild-type hRI and each variant.

[3] = biological target: T2, C330A human ribonuclease inhibitor; assay: as above
Experimental: as §1

[4] = biological target: T3, wild-type human ribonuclease inhibitor; assay: affinity chromatography on RNase A-Sepharose 4B resin
[5] = biological target: T4, C95A/C96A human ribonuclease inhibitor; assay: as above
[6] = biological target: T5, C329A/C330A human ribonuclease inhibitor; assay: as above

| binding result [1] | binding result [2] | binding result [3] | binding result [4] | binding result [5] | binding result [6] | Binder |
| --- | --- | --- | --- | --- | --- | --- |
| binds |  |  |  |  |  | B1 |
|  | binds | binds | binds | binds | binds | B2 |
